For experiment [1], the target named is T1, human LAP-TGFβ1 overexpressed on cells (human, UniProt P01137 30-390).
T1 construct: HT1080 or P3U1 cells overexpressing wild-type human LAP-TGFβ1; also called HT1080-huB1; HT1080-hβ1
The experiment is described as follows: flow cytometry; black bar HT1080-huB1, grey bar HT1080-null. Background: A flow cytometer gives signals particle by particle.

Experiment [2] concerns the target T2, human GARP and human LAP-TGFβ1 co-expressed on P3U1 cells (human, UniProt Q14392 20-662).
T2 construct: whole, on cells; also called P3U1 cells over-expressing human GARP and LAP-TGFβ1
Briefly: flow cytometry competition with biotin-28G11 (0.31 µg) on P3U1 cells with human GARP and LAP-TGFβ1. How it is done: In the first experiment, the various humanized 28G11 candidates were tested for retention of binding to human LAP-TGFβ1 by competition with biotin-28G11 in a flow cytometry assay.
P3U1 cells over-expressing human GARP and LAP-TGFβ1 were placed in a round-bottom 96-well plate at density of 40,000 cells/well. The cells were washed with FACS buffer (25 mM HEPES, 2 mM EDTA, 2% fetal bovine serum in Hank's Balanced Salt Solution). 50 μL of 1:200 diluted TruStain Mouse FcX (BioLegend) was added to each well, followed by 50 μL of 100 ng/μL of humanized 28G11 construct (H0L0, H0L1, H0L2, H0L3, HILO, H1L1, H1L2, H1L3, H2L0, H2L1, H2L2, H2L3). The antibody was allowed to bind for 10 minutes. 50 μL of 6.2 ng/μL of biotinylated murine hybridoma 28G11_(hyb) was added to each well. The biotinylated antibody was allowed to bind for 10 minutes, and then the cells were washed twice with FACS buffer. The cells were labeled for 15 minutes with allophytocyanin-streptavidin (BioLegend), washed twice with FACS buffer, and analyzed by flow cytometry.

The target of experiment [3] is T1, human LAP-TGFβ1 overexpressed on cells. Briefly: cell-based or functional assay.
The target in experiment [4] is murine LAP-TGFβ1 overexpressed on cells (mouse, UniProt P04202 30-390). The experiment is described as follows: cell-based or functional assay.
murine LAP-TGFβ1 overexpressed on cells, sequence (P04202 30-390): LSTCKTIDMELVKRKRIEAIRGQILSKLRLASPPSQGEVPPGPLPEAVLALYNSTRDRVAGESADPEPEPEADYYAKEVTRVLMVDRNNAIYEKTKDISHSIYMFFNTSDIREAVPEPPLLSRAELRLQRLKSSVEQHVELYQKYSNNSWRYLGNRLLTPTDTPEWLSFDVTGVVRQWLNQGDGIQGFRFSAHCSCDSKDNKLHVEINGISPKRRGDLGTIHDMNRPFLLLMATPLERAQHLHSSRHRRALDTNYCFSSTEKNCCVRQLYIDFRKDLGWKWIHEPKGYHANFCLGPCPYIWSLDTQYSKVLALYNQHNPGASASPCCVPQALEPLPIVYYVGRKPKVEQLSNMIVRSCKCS
Experiment [5] concerns the target T3, LAP-TGFβ1 on U937 cells (Homo sapiens, UniProt P01137).
T3 construct: cell surface, endogenous; also called LAP+ U937 cells
The experiment is described as follows: flow cytometry, U937 cells, Alexa 647 antibody, % LAP+ cells. How it is done: (§1) Anti-LAP antibodies were tested for their ability to bind to U937 cells, a myeloid cell line derived from a patient with histiocytic lymphoma. U937 cells were incubated with FACS buffer and human Fc block followed by incubation with varying concentrations of Alexa 647 conjugated 28G11_hyb, 22F9_mIgG2a, or 20E6_mIgG2a. In a separate experiment U937 cells were incubated with FACS buffer and human Fc block followed by incubation with 10 ug/ml of Alexa 647 conjugated 28G11_hyb, 22F9_mIgG2a, 20E6_mIgG2a or mIgG2a isotype control (FIGS. 10E and 10F). Representative dot plots are shown in FIG. 10G; in these plots, antibodies were at 10 ug/ml.

Experiment [6] deals with T3, LAP-TGFβ1 on U937 cells. The experiment is described as follows: flow cytometry dot plot against GARP, U937 cells, Alexa 647 antibody at 10 ug/ml. How it is done: as §1
Experiment [7] has as its target T1, human LAP-TGFβ1 overexpressed on cells. The experiment is described as follows: flow cytometry; black bar HT1080-huB1, grey bar HT1080.
In experiment [8] the target is T4, LAP-TGFβ1 on THP-1 cells (Homo sapiens, UniProt P01137).
T4 construct: cell surface, endogenous; also called LAP+ THP-1 cells
T4 sequence (P01137 30-390 limits assumed): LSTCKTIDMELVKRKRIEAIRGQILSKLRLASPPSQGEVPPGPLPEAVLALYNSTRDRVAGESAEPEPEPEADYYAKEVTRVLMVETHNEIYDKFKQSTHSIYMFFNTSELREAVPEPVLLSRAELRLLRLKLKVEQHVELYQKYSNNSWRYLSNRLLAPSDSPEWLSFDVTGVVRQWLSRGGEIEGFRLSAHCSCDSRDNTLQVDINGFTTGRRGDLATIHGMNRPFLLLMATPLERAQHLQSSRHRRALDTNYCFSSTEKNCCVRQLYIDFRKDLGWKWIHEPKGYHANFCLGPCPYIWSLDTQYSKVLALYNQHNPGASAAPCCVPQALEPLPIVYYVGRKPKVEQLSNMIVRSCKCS
Briefly: flow cytometry, THP-1 cells, % positive cells. How it is done:
Anti-LAP antibodies were tested for their ability to bind to THP-1 cells, a cell line derived from a patient with acute monocytic leukemia that is reported to express LRRC33. THP-1 cells were incubated with FACS buffer and human Fc block followed by incubation with varying concentrations of Alexa 647 conjugated 28G11_(hyb), 22F9_mIgG2a, 20E6_mIgG2a, 17G8_hIgG1, 24E3_hIgG1, 2C9_mIgG2a, or mIgG2a isotype control. Cells were analyzed by flow cytometry and graphed as percent positive THP-1 cells or median fluorescent intensity (MFI) of anti-LAP binding. As shown in FIGS. 10A and 10B, antibodies 22F9, 17G8, 24E3, 20E6, and 2C9 display strong binding to THP-1 cells. […] In another experiment, the binding of 20E6 mIgG2a and 7H4 hyb to THP-1 cells was compared using the methods described above. […] In a separate experiment THP-1 cells were incubated with FACS buffer and human Fc block followed by incubation with 5 ug/ml of Alexa 647 conjugated 28G11_hyb, 22F9_mIgG2a, 20E6_mIgG2a, 2C9_mIgG2a, or IgG2a isotype control. Cells were analyzed by flow cytometry and gated as single cells. Representative dot plots are shown in FIG. 10D; in these plots, antibodies were at 5 ug/ml.

T1 sequence (P01137 30-390): as the sequence (P01137 30-390 limits assumed) above
T3 sequence (P01137 30-390 limits assumed): as above
T2 sequence (chain, as listed by the source, chain 1 of 2): as the sequence (P01137 30-390 limits assumed) above
T2 sequence (Q14392 20-662, chain 2 of 2): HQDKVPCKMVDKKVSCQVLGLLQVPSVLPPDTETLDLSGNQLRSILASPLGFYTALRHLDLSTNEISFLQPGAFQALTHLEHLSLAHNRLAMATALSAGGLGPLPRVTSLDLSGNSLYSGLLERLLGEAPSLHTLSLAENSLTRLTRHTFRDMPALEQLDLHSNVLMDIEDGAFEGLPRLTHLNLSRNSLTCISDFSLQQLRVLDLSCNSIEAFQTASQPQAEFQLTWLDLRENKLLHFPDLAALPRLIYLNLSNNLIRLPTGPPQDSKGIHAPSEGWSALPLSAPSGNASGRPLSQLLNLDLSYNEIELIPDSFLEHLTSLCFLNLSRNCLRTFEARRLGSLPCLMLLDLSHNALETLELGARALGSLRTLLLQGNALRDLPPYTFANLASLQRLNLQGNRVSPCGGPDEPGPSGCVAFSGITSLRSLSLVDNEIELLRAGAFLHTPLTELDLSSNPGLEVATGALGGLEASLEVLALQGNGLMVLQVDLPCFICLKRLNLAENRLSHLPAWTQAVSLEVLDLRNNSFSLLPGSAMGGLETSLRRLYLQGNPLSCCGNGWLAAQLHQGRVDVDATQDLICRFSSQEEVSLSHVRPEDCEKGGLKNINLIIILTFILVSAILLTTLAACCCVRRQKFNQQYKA

B1: 20E6 H0.1 construct (antibody, human IgG1, kappa, V domains shown)
VH: QVQLVQSGAEVKKPGASVKVSCKASGYTFTSYWMHWVRQAPGQGLEWMGRIDPNSGGIKYAQKFQGRATLTVDTSTSTAYMELSRLRSDDTAVYYCARWDYGGYFDVWGQGTLVTVSS
VL: DIQMTQSPSSLSASVGDRVTITCRASQDITNYLNWYQQKPGKAVKLLIYYTSRLHSGVPSRFSGSGSGTDYTLTISSLQPEDFATYFCQQGDTLPWTFGQGTKLEIKR
On to B1, for which, in experiment [1], the binding result is given as “binds”.

B2: 28G11_H2L0 (antibody, human IgG1, kappa, V domains shown)
VH: EVQLVESGGGLVQPGGSLRLSCAASGFTFTDYYMSWVRQAPGKGLEWLGFIRNKPNGYTTEYSASVKGRFTISRDNSQSSLYLQMNSLKTEDTAVYYCARYTGGGYFDYWGQGTLLTVSS
VL: DIQMTQSPSSLSASVGDRVTITCRASQDISNYLNWYQQKPGKVPKLLIYYTSRLHSGVPSRFSGSGSGTDFTLTISSLQPEDVATYYCQQGDTLPWTFGQGTKLEIKR
In the case of B2, the binding result in experiment [2] was “no binding (tested: 5 µg competitor)”.

B3: 28G11_H0L3 (antibody, human IgG1, kappa, V domains shown)
VH: EVQLVESGGGLVQPGGSLRLSCAASGFTFSDYYMSWVRQAPGKGLEWVGFIRNKPNGYTTEYSASVKGRFTISRDDSKNSLYLQMNSLKTEDTAVYYCARYTGGGYFDYWGQGTLVTVSS
VL: DIQMTQSPSSLSASVGDRLTISCRASQDISNYLNWYQQKPGKTVKLLIYYTSRLHSGVPSRFSGSGSGTDYTLTISSLQPEDVATYFCQQGDTLPWTFGQGTKLEIKR
For the molecule B3, the binding result in experiment [2] was “no binding (tested: 5 µg competitor)”.

B4: 22F9_mIgG2a (antibody, V domains shown)
VH: QVQLQQPGAELVKPGASVKLSCKASGYTFTSYWMHWVKQRPGQGLEWIGMIHPNSGSTNYNEKFKSKATLTVDKSSSTAYMQLSSLTSEDSAVYYCAYYDYDGFFDVWGTGTTVTVSS
VL: DIVLTQSPASLDVSLGQRATISCRASKSVSTSGYSYMHWYQQKSGQPPKLLIYLASNLESGVPARFSGSGSGTHFTLNIHPVEEEDAATYYCQHSRELPYTFGGGTKLEIK
notes: also called 22F9_IgG2a
For B4, the “IC50 of inhibition of TGFβ1 activation” value in experiment [3] turned out to be 1.8 µg/mL. Further, the “IC50 of inhibition of TGFβ1 activation” value in experiment [4] was determined as 1 µg/mL. Further, the EC50 (read off the curve) (usually the concentration needed to bring the measured effect to its halfway point) in experiment [5] is around 20 µg/mL. Besides, in experiment [6], the “% of cells in Q1 (antibody axis positive, GARP negative)” value came out at 43.8% and the “% of cells in Q2 (antibody axis positive, GARP positive)” value came to 0.44%.

B5: 22F9_Y98R (antibody, human IgG1, kappa, V domains shown)
VH: QVQLVQPGAEVVKPGASVKLSCKASGYTFTSYWMHWVKQRPGQGLEWIGMIHPNSGSTNYNEKFKSKATLTVDKSSSTAYMELSSLRSEDTAVYYCARYDYDGFFDVWGQGTLVTVSS
VL: DIQLTQSPSSLSASVGDRVTITCRASKSVSTSGYSYMHWYQQKPGKAPKLLIYLASNLESGVPSRFSGSGSGTDFTLTISSLQPEDFATYYCQHSRELPYTFGGGTKVEIKR
notes: also called 22F9_H5L0 with VH Y98R
Regarding B5, the binding result in experiment [7] is on record as “binds”.

B6: 7H4 (antibody, mouse IgG2b, kappa, V domains shown)
VH: DVQLQESGPGLVKPSQSLSLTCSVTGYSITSGYYWNWIRQFPGNKLEWMGYISYDGTNNYNPSLKNRISITRDTSKHQFFLKLNSVTTEDTATYYCARSFYNNYFDFWGQGTTLTVSS
VL: DIQMTQSPSSLSASLGGKVTITCKASQDIDKYIAWYQHKPGKGPRLLIHYTSTLQPGIPSRFSGSGSGRDYSFNISNLEPEDIATYYCLQYDNLRTFGGGTKLEIKR
notes: also called 7H4 hyb; 7H4_(hyb)
As to B6, the binding result in experiment [8] was “no binding (tested: 100 ug/ml)”.

The values are drawn from patent US20220017612A1 (TILOS THERAPEUTICS, published 2022).
